Substrate: O=C(CNc1ccccc1)[C@H](O)[C@H](O)COP(=O)(O)O
Experiment: discontinuous spectrophotometric assay of IGP formation (A278)
Assay type: biochemical, Pseudomonas aeruginosa
Details: 50 mM Tris-HCl, 4 mM MgCl2, 0.5 mM TCEP, pH 7.0, 25 °C, substrate made enzymatically in situ from aniline and PRPP, 2.5 μM enzyme

B1: PaIGPS (Pseudomonas aeruginosa PAO1) (protein)
chain: MSVPTVLQKILARKAEEVAERRARVNLAEVERLARSADAPRGFANALLERAKRKEPAVIAEIKKASPSKGVLREHFVPAEIARSYEAGGAACLSVLTDVDFFQGADAYLKEARAACALPVIRKDFMIDPYQIVEARAIGADCILLIVSALDDVLMAELAATAKSVGLDVLVEVHDGTELERALKTLDTPLVGINNRNLHTFEVSLETTLDLLPEIPRDRLVVTESGILNRADVELMEVSEVYAFLVGEAFMRADDPGLELKRLFFQERGAVVLGADPD
Km: 180 ± 50 µM | kcat: 15.9 ± 1.4 h⁻¹
